Data published in article PMC8971729 (2022).

T1: Human desmoglein-2 Fc chimera protein (DSG2) (human, UniProt Q14126)
T1 chain: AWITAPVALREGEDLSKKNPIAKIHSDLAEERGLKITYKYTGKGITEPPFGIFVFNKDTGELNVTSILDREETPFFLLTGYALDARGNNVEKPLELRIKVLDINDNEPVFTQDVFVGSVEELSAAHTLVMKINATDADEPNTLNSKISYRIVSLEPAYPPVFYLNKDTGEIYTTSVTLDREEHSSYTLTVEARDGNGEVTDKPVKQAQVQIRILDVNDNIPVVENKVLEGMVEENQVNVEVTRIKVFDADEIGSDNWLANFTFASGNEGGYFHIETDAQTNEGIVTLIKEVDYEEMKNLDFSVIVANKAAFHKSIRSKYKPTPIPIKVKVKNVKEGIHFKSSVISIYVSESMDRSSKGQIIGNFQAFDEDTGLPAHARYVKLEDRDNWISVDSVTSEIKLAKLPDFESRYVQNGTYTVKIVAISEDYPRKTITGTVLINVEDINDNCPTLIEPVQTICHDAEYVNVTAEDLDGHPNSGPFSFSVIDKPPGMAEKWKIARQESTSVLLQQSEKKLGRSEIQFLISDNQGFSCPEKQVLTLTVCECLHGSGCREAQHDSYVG

T2: human CD46 protein (His tag) (human, UniProt P15529)
T2 chain: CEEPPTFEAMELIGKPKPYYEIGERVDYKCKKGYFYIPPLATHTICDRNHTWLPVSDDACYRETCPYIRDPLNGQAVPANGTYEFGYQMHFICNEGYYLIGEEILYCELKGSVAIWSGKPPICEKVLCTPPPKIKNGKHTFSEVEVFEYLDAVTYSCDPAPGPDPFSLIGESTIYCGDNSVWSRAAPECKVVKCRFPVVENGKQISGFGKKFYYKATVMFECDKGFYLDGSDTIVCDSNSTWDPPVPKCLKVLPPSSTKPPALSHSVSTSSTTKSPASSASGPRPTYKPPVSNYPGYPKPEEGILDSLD

B1: HAdV-C5 fiber knob protein (domain or fragment)
chain: KNNDKLTLWTTPAPSPNCRLNAEKDAKLTLVLTKCGSQILATVSVLAVKGSLAPISGTVQSAHLIIRFDENGVLLNNSFLDPEYWNFRNGDLTEGTAYTNAVGFMPNLSAYPKSHGKTAKSNIVSQVYLNGDKTKPVTLTITLNGTQETGDTTPSAYSMSFSWDWSGHNYINEIFATSSYTFSYIAQE
B2: human CXADR Fc chimera protein (CAR) (Fc fusion)
chain: LSITTPEEMIEKAKGETAYLPCKFTLSPEDQGPLDIEWLISPADNQKVDQVIILYSGDKIYDDYYPDLKGRVHFTSNDLKSGDASINVTNLQLSDIGTYQCKVKKAPGVANKKIHLVVLVKPSGARCYVDGSEEIGSDFKIKCEPKEGSLPLQYEWQKLSDSQKMPTSWLAEMTSSVISVKNASSEYSGTYSCTVRNRVGSDQCLLRLNVVPPSNKAG
B3: HAdV-B3 fiber knob (domain or fragment)
chain: NSIALKNNTLWTGPKPEANCIIEYGKQNPDSKLTLILVKNGGIVNGYVTLMGASDYVNTLFKNKNVSINVELYFDATGHILPDSSSLKTDLELKYKQTADFSARGFMPSTTAYPFVLPNAGTHNENYIFGQCYYKASDGALFPLEVTVMLNKRLPDSRTSYVMTFLWSLNAGLAPETTQATLITSPFTFSYIREDD

Experiments:
Assay in all cases: SPR
[1] = target: B2
[2] = target: HAdV-D10 fiber knob protein (human adenovirus type 10 (HAdV-D10))
[3] = target: T1, Human desmoglein-2 Fc chimera protein …
[4] = target: T2, human CD46 protein (His tag)
[5] = target: T2, human CD46 protein (His tag)

Binder: B1
- koff [1]: 0.0019 s⁻¹

Binder: B2
- koff [2]: 0.0019 s⁻¹

Binder: B3
- Kd [3]: 66.9 µM
- Kd [4]: 0.16 µM
- koff [5]: 0.025 s⁻¹
